This passage reports Particle titer (AAV2 capsid ELISA) after trans-complementation and Particle titer (AAV1 capsid ELISA) after trans-complementation results from patent publication US20120135022A1.

Test [1] concerns the target AAV2 capsid protein VP3 (AAV2) (UniProt P03135). The test can be described thus: cell-based or functional assay.
For test [2], the target named is AAV1 capsid protein VP3 (AAV1). The test can be described thus: cell-based or functional assay.

Sequence of UniProt P03135 (P03135 203-735 limits assumed): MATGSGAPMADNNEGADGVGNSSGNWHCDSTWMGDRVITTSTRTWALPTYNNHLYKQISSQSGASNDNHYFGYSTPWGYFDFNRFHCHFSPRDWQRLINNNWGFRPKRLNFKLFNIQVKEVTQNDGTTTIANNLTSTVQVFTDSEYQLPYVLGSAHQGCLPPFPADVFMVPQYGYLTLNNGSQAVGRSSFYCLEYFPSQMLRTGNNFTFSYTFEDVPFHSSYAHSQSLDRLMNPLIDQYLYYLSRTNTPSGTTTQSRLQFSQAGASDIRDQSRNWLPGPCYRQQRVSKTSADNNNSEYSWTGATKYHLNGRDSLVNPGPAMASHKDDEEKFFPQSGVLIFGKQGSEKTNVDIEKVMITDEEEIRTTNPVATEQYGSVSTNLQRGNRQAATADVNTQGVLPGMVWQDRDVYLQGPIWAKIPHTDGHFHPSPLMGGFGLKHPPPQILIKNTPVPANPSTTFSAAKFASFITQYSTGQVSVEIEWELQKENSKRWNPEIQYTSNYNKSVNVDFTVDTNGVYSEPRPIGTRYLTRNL

“C-terminally truncated AAP (AAPtru) of AAV2 expressed from pVP2N-gfp (from UniProt D5SGZ8 2-177)”: the Particle titer (AAV2 capsid ELISA) after trans-complementation in test [1] came out at 2.1e+11. Moreover, the Particle titer (AAV1 capsid ELISA) after trans-complementation in test [2] was found to be 3.4e+10.
